Target: T1, human transferrin receptor (recombinant, for surface plasmon resonance) (human, UniProt P02786 89-760)
T1 construct: also called huTfR; human transferrin receptor-biotinylated
Experiment: SPR 25C

T1 sequence (P02786 89-760 limits assumed): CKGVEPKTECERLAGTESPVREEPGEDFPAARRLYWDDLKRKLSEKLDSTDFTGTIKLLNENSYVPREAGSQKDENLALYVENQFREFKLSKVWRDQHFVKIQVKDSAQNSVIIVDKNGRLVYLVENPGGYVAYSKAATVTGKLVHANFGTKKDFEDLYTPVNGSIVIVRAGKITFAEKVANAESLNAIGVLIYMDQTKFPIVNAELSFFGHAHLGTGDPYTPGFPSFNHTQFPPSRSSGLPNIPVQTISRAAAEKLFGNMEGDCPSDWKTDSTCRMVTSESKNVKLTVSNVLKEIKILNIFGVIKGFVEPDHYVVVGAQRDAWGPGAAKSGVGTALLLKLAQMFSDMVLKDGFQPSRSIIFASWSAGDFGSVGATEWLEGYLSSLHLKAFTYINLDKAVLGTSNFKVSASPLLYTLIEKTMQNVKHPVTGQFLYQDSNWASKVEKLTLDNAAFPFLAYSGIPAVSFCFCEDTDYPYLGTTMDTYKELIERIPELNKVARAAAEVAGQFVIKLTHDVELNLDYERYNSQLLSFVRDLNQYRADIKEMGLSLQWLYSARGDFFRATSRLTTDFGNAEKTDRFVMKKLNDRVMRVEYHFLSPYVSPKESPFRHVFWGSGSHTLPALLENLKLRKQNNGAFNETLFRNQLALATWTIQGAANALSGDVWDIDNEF

Binder	koff
2/99 VH21/VL10 (antibody, V domains shown) VH: QSMQESGPGLVKPSQTLSLTCTVSGFSLSSYAMSWIRQHPGKGLEWIGYIWSGGSTDYASWAKSRVTISVDTSKNQVSLKLSSVTAADTAVYYCARRYGTSYPDYGDANGFDPWGQGTLVTVSS VL: DIQMTQSPSSLSASVGDRVTITCRASQSISSYLSWYQQKPGKAPKLLIYRASTLASGVPSRFSGSRSGTDFTLTISSLQPEDFATYYCQQSYSSSNVDNTFGGGTKVEIK	0.00211 s⁻¹
2/99 VH12/VL10 (antibody, V domains shown) VH: QVQLQESGPGLVKPSETLSLTCTVSGFSLSSYAMSWIRQPPGKGLEWIGYIWSGGSTDYNPSLKSRVTISVDTSKNQFSLKLSSVTAADTAVYYCARRYGTSYPDYGDANGFDPWGQGTLVTVSS VL: DIQMTQSPSSLSASVGDRVTITCRASQSISSYLSWYQQKPGKAPKLLIYRASTLASGVPSRFSGSRSGTDFTLTISSLQPEDFATYYCQQSYSSSNVDNTFGGGTKVEIK	0.00779 s⁻¹
2/99 VH2/VL12 (antibody, V domains shown) VH: EVQLVETGGGLIQPGGSLRLSCAASGFSLSSYAMSWVRQAPGKGLEWVGYIWSGGSTDYADSVKGRFTISRDNSKNTLYLQMNSLRAEDTAVYYCARRYGTSYPDYGDANGFDPWGQGTLVTVSS VL: DIQMTQSPSSLSASVGDRVTITCRASQSISSYLAWYQQKPGKAPKLLIYRASTLASGVPSRFSGSRSGTDFTLTISSLQPEDFATYYCQQHYSSSNVDNTFGGGTKVEIK	0.00814 s⁻¹
2/99 VH19/VL10 (antibody, V domains shown) VH: QSMQESGPGLVKPSQTLSLTCTVSGFSLSSYAMSWIRQHPGKGLEWIGYIWSGGSTDYAPSLKSRVTISVDTSKNQFSLKLSSVTAADTAVYYCARRYGTSYPDYGDANGFDPWGQGTLVTVSS VL: DIQMTQSPSSLSASVGDRVTITCRASQSISSYLSWYQQKPGKAPKLLIYRASTLASGVPSRFSGSRSGTDFTLTISSLQPEDFATYYCQQSYSSSNVDNTFGGGTKVEIK	0.001 s⁻¹
2/99 VH6/VL12 (antibody, V domains shown) VH: QQLVETGGGLIQPGGSLRLSCAASGFSLSSYAMSWVRQAPGKGLEWIGYIWSGGSTDYADSVKGRFTISRDNSKNTLYLQMNSLRAEDTAVYYCARRYGTSYPDYGDANGFDPWGQGTLVTVSS VL: DIQMTQSPSSLSASVGDRVTITCRASQSISSYLAWYQQKPGKAPKLLIYRASTLASGVPSRFSGSRSGTDFTLTISSLQPEDFATYYCQQHYSSSNVDNTFGGGTKVEIK	0.00778 s⁻¹
2/99 VH13/VL10 (antibody, V domains shown) VH: QVQLQESGPGLVKPSETLSLTCTVSGFSLSSYAMSWIRQPPGKGLEWIGYIWSGGSTDYNPSLKSRVTISVDTSKNQVSLKLSSVTAADTAVYYCARRYGTSYPDYGDANGFDPWGQGTLVTVSS VL: DIQMTQSPSSLSASVGDRVTITCRASQSISSYLSWYQQKPGKAPKLLIYRASTLASGVPSRFSGSRSGTDFTLTISSLQPEDFATYYCQQSYSSSNVDNTFGGGTKVEIK	0.00589 s⁻¹
2/99 VH8/VL12 (antibody, V domains shown) VH: QQLVETGGGLIQPGGSLRLSCAASGFSLSSYAMSWVRQAPGKGLEWIGYIWSGGSTDYASWAKGRFTISKTSTTLYLQMNSLRAEDTAVYYCARRYGTSYPDYGDANGFDPWGQGTLVTVSS VL: DIQMTQSPSSLSASVGDRVTITCRASQSISSYLAWYQQKPGKAPKLLIYRASTLASGVPSRFSGSRSGTDFTLTISSLQPEDFATYYCQQHYSSSNVDNTFGGGTKVEIK	0.00672 s⁻¹
2/99 VH12/VL12 (antibody, V domains shown) VH: QVQLQESGPGLVKPSETLSLTCTVSGFSLSSYAMSWIRQPPGKGLEWIGYIWSGGSTDYNPSLKSRVTISVDTSKNQFSLKLSSVTAADTAVYYCARRYGTSYPDYGDANGFDPWGQGTLVTVSS VL: DIQMTQSPSSLSASVGDRVTITCRASQSISSYLAWYQQKPGKAPKLLIYRASTLASGVPSRFSGSRSGTDFTLTISSLQPEDFATYYCQQHYSSSNVDNTFGGGTKVEIK	0.001 s⁻¹
2/99 VH7/VL12 (antibody, V domains shown) VH: QQLVETGGGLIQPGGSLRLSCAASGFSLSSYAMSWVRQAPGKGLEWIGYIWSGGSTDYASWAKGRFTISRDNSKNTLYLQMNSLRAEDTAVYYCARRYGTSYPDYGDANGFDPWGQGTLVTVSS VL: DIQMTQSPSSLSASVGDRVTITCRASQSISSYLAWYQQKPGKAPKLLIYRASTLASGVPSRFSGSRSGTDFTLTISSLQPEDFATYYCQQHYSSSNVDNTFGGGTKVEIK	0.00775 s⁻¹
2/99 VH1/VL12 (antibody, V domains shown) VH: VQLVETGGGLIQPGGSLRLSCAASGFSLSSYAMSWVRQAPGKGLEWVGYIWSGGSTDYADSVKGRFTISRDNSKNTLYLQMNSLRAEDTAVYYCARRYGTSYPDYGDANGFDPWGQGTLVTVSS VL: DIQMTQSPSSLSASVGDRVTITCRASQSISSYLAWYQQKPGKAPKLLIYRASTLASGVPSRFSGSRSGTDFTLTISSLQPEDFATYYCQQHYSSSNVDNTFGGGTKVEIK	0.00705 s⁻¹
2/99 VH23-DANG/VL10 (antibody, V domains shown) VH: QSMQESGPGLVKPSQTLSLTCTVSGFSLSSYAMSWIRQHPGKGLEWIGYIWSGGSTDYASWAKSRVTISKTSTTVSLKLSSVTAADTAVYYCARRYGTSYPDYGDANGFDPWGQGTLVTVSS VL: DIQMTQSPSSLSASVGDRVTITCRASQSISSYLSWYQQKPGKAPKLLIYRASTLASGVPSRFSGSRSGTDFTLTISSLQPEDFATYYCQQSYSSSNVDNTFGGGTKVEIK	0.0012 s⁻¹
2/99 VH17/VL10 (antibody, V domains shown) VH: QQLQESGPGLVKPSETLSLTCTVSGFSLSSYAMSWVRQPPGKGLEWIGYIWSGGSTDYNPSLKSRVTISKDTSKNQVSLKLSSVTAADTAVYYCARRYGTSYPDYGDANGFDPWGPGTLVTVSS VL: DIQMTQSPSSLSASVGDRVTITCRASQSISSYLSWYQQKPGKAPKLLIYRASTLASGVPSRFSGSRSGTDFTLTISSLQPEDFATYYCQQSYSSSNVDNTFGGGTKVEIK	0.00188 s⁻¹
2/99 VH5/VL12 (antibody, V domains shown) VH: QSMEETGGGLIQPGGSLRLSCAASGFSLSSYAMSWVRQAPGKGLEWVGYIWSGGSTDYADSVKGRFTISRDNSKNTLYLQMNSLRAEDTAVYYCARRYGTSYPDYGDANGFDPWGPGTLVTVSS VL: DIQMTQSPSSLSASVGDRVTITCRASQSISSYLAWYQQKPGKAPKLLIYRASTLASGVPSRFSGSRSGTDFTLTISSLQPEDFATYYCQQHYSSSNVDNTFGGGTKVEIK	0.001 s⁻¹
2/99 VH22/VL10 (antibody, V domains shown) VH: QSMQESGPGLVKPSQTLSLTCTVSGFSLSSYAMSWVRQHPGKGLEWIGYIWSGGSTDYASWAKSRVTISVDTSKNQVSLKLSSVTAADTAVYYCARRYGTSYPDYGDANGFDPWGQGTLVTVSS VL: DIQMTQSPSSLSASVGDRVTITCRASQSISSYLSWYQQKPGKAPKLLIYRASTLASGVPSRFSGSRSGTDFTLTISSLQPEDFATYYCQQSYSSSNVDNTFGGGTKVEIK	0.00209 s⁻¹

Second part, the binder after the results:

koff	Binder
0.00719 s⁻¹	2/99 VH9/VL10 (antibody, V domains shown) VH: QQLLESGGGLVQPGGSLRLSCAASGFTFSSYAMSWVRQAPGKGLEWVGYIWSGGSTDYADSVKGRFTISRDNSKNTLYLQMNSLRAEDTAVYYCAKRYGTSYPDYGDANGFDPWGQGTLVTVSS VL: DIQMTQSPSSLSASVGDRVTITCRASQSISSYLSWYQQKPGKAPKLLIYRASTLASGVPSRFSGSRSGTDFTLTISSLQPEDFATYYCQQSYSSSNVDNTFGGGTKVEIK
0.00424 s⁻¹	2/99 VH16/VL10 (antibody, V domains shown) VH: QQLQESGPGLVKPSETLSLTCTVSGFSLSSYAMSWVRQPPGKGLEWIGYIWSGGSTDYNPSLKSRVTISVDTSKNQVSLKLSSVTAADTAVYYCARRYGTSYPDYGDANGFDPWGPGTLVTVSS VL: DIQMTQSPSSLSASVGDRVTITCRASQSISSYLSWYQQKPGKAPKLLIYRASTLASGVPSRFSGSRSGTDFTLTISSLQPEDFATYYCQQSYSSSNVDNTFGGGTKVEIK
0.00705 s⁻¹	2/99 VH20/VL10 (antibody, V domains shown) VH: QSMQESGPGLVKPSQTLSLTCTVSGFSLSSYAMSWIRQHPGKGLEWIGYIWSGGSTDYAPSLKSRVTISVDTSKNQVSLKLSSVTAADTAVYYCARRYGTSYPDYGDANGFDPWGQGTLVTVSS VL: DIQMTQSPSSLSASVGDRVTITCRASQSISSYLSWYQQKPGKAPKLLIYRASTLASGVPSRFSGSRSGTDFTLTISSLQPEDFATYYCQQSYSSSNVDNTFGGGTKVEIK
0.00746 s⁻¹	2/99 VH18/VL10 (antibody, V domains shown) VH: QVQLQESGPGLVKPSQTLSLTCTVSGFSLSSYAMSWIRQHPGKGLEWIGYIWSGGSTDYAPSLKSRVTISVDTSKNQFSLKLSSVTAADTAVYYCARRYGTSYPDYGDANGFDPWGQGTLVTVSS VL: DIQMTQSPSSLSASVGDRVTITCRASQSISSYLSWYQQKPGKAPKLLIYRASTLASGVPSRFSGSRSGTDFTLTISSLQPEDFATYYCQQSYSSSNVDNTFGGGTKVEIK
0.00787 s⁻¹	2/99 VH11/VL12 (antibody, V domains shown) VH: QQLLESGGGLVQPGGSLRLSCAASGFSLSSYAMSWVRQAPGKGLEWVGYIWSGGSTDYADSVKGRFTISRDNSKNTLYLQMNSLRAEDTAVYYCARRYGTSYPDYGDANGFDPWGQGTLVTVSS VL: DIQMTQSPSSLSASVGDRVTITCRASQSISSYLAWYQQKPGKAPKLLIYRASTLASGVPSRFSGSRSGTDFTLTISSLQPEDFATYYCQQHYSSSNVDNTFGGGTKVEIK
0.00716 s⁻¹	2/99 VH11/VL10 (antibody, V domains shown) VH: QQLLESGGGLVQPGGSLRLSCAASGFSLSSYAMSWVRQAPGKGLEWVGYIWSGGSTDYADSVKGRFTISRDNSKNTLYLQMNSLRAEDTAVYYCARRYGTSYPDYGDANGFDPWGQGTLVTVSS VL: DIQMTQSPSSLSASVGDRVTITCRASQSISSYLSWYQQKPGKAPKLLIYRASTLASGVPSRFSGSRSGTDFTLTISSLQPEDFATYYCQQSYSSSNVDNTFGGGTKVEIK
0.00399 s⁻¹	2/99 VH15/VL10 (antibody, V domains shown) VH: QQLQESGPGLVKPSETLSLTCTVSGFSLSSYAMSWVRQPPGKGLEWIGYIWSGGSTDYNPSLKSRVTISVDTSKNQVSLKLSSVTAADTAVYYCARRYGTSYPDYGDANGFDPWGQGTLVTVSS VL: DIQMTQSPSSLSASVGDRVTITCRASQSISSYLSWYQQKPGKAPKLLIYRASTLASGVPSRFSGSRSGTDFTLTISSLQPEDFATYYCQQSYSSSNVDNTFGGGTKVEIK
0.001 s⁻¹	2/99 VH9/VL12 (antibody, V domains shown) VH: QQLLESGGGLVQPGGSLRLSCAASGFTFSSYAMSWVRQAPGKGLEWVGYIWSGGSTDYADSVKGRFTISRDNSKNTLYLQMNSLRAEDTAVYYCAKRYGTSYPDYGDANGFDPWGQGTLVTVSS VL: DIQMTQSPSSLSASVGDRVTITCRASQSISSYLAWYQQKPGKAPKLLIYRASTLASGVPSRFSGSRSGTDFTLTISSLQPEDFATYYCQQHYSSSNVDNTFGGGTKVEIK

— patent US20180291110A1 (Hoffmann-La Roche, published 2018)
